B1: C-type lectin lectoxin-Phi1-like (C-lectoxin), His tag removed (natural protein)
chain: DVPKDYIVNPNDSHGYKLMYHAKTWTEARDDCANVGAKLAVPKTRDQFEFIQKIVRSMQYQSIVGTEYKLLVWLGISNLKNYQVWANVDGENIEDTEFHTWAGQNGLKSENPAEPHCVGMDSMNFGLRDWWCHQRQPYICEILTVQNATQ
modifications: Wild-type trypsin-activated core; the text prints neither the Cry1F subtype nor the limits. Cry1Fa assumed, with the conventional tryptic core 28-612.
B2: hemolymph lipopolysaccharide-binding protein (LBP), His tag removed (natural protein)
chain: QKRYRNDYVYDANTDAFYKFHVNMAVHWRALTICKLEGATLMVPTSVQQIAQVHGMFKQYPDIGHYVWIGDDNADHESAEETPIIDLQPEVETEAPWERRCLVLTRRGEIQTQNCRYYQSFVCMVEAKNAPYDHRCDVYAAGYEYNTDVKSCYKIPRDIKTWNAAYAECQAHGAHLVVVNSVTERDVLQALMSRTPYLRTSFSPYHYIAGIRATSVIGSEVVYRTIFNETLEEAGFSEWADNEPNNQQGIEYCGSLHQRSGKYNDISCLSSFGYICEKERNE
modifications: Wild-type trypsin-activated core; the text prints neither the Cry1F subtype nor the limits. Cry1Fa assumed, with the conventional tryptic core 28-612.
B3: CD63 antigen-like (CD63) tetraspanin, His tag removed (natural protein)
chain: KGNAEALVQKQLYETMQLYTHDVVVTRLWDEVQEDFSCCGVNNASDWLAPLGTANTDQGLPLSCCQFPFGTITVFNCTMATPAPTLRTEGCSTAFGAWVQSHAGS
modifications: Wild-type trypsin-activated core; the text prints neither the Cry1F subtype nor the limits. Cry1Fa assumed, with the conventional tryptic core 28-612.
B4: C-type mannose receptor 2-like (C-MR2), His tag removed (natural protein)
chain: SELNTSKSNWFRPDYSYSERTGGWFKFHSVPATWEDARLQCYYEGAELVSPFNENIIQKMIMLMDVNEPYIFTGIHSTFSKGVYTSVGGVPLHEMPVSLHSRDVSGNCVTMRSNGRVEARNCSSQYPYICFKKGPEHLTSSVCGADQEYKYEQRTGSCYKFHTLGRTWPQAFRVCVAEGGHLAIINSDVEADVIRGIFQNYPDDAFKADAKYAASIGFQGWGAVKIWWTIHGQTLQDAGYSKWDKFVPDMRSTRHYCGAVGRNGTLSHIECEGVTFPAICEKKADLV
modifications: Wild-type trypsin-activated core; the text prints neither the Cry1F subtype nor the limits. Cry1Fa assumed, with the conventional tryptic core 28-612.

Target: Trypsin-activated Cry1F toxin from Bacillus thuringiensis (Bacillus thuringiensis, UniProt Q03746 1-1174)
Test: SPR; Biacore 8K; activated Cry1F immobilised on a CM5 chip (10 mM sodium acetate pH 4.0); analytes without His tag in 10 mM HEPES, 150 mM NaCl, 3 mM EDTA, 0.005% Tween-20, pH 7.4; 30 uL/min, association 120 s, dissociation 280 s; 1:1 binding model
Details: both partners purified

Sequence of Trypsin-activated Cry1F toxin from Bacillus thuringiensis (Q03746 28-612 limits assumed): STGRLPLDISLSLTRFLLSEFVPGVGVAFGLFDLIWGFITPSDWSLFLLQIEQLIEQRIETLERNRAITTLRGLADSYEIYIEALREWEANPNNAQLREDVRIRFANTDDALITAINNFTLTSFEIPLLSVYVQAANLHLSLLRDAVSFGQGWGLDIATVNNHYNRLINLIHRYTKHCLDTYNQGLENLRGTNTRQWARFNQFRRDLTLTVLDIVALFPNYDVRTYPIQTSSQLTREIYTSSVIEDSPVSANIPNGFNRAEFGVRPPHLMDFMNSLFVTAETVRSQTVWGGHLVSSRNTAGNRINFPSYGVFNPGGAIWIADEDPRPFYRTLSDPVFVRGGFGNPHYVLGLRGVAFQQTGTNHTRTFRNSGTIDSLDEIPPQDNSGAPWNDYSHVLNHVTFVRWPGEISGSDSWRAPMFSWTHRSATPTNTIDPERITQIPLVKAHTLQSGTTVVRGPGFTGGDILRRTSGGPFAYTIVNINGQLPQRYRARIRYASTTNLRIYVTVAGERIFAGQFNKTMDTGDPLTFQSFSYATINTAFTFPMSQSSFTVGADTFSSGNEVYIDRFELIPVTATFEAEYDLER

Binder | Kd [nM] | koff [s⁻¹] | kon [M⁻¹ s⁻¹]
B1 | 46.6 | 0.00513 | 110000
B2 | 119 | 0.00294 | 24700
B3 | 294 | 0.00474 | 16100
B4 | 22.1 | 0.0041 | 185000

From PMC9714555, “Hemocyte response to treatment of susceptible and resistant Asian corn borer (Ostrinia furnacalis) larvae with Cry1F toxin from Bacillus thuringiensis” (Frontiers in Immunology, 2022)
